Measured values reported in the supplement of paper PMC9112550, “Optimization of the antimicrobial peptide Bac7 by deep mutational scanning” (BMC Biology, 2022).

Tested on: Escherichia coli TOP10
Assay: shrunken log2 fold change of peptide-encoding DNA abundance (4.5 h post-induction vs induction); higher = less antimicrobial activity (less host growth inhibition)
Settings: time post-induction: 4.5 h; library: site-saturation at positions 5, 18, 19, 20
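Also: peptides expressed intracellularly from a pBAD plasmid library in pooled LB shake-flask culture, induced with 0.3% L-arabinose, DNA abundance read by NGS, three biological replicates, DESeq2 with apeglm shrinkage.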

Sequence	shrunken log2 fold change
RRIRMRPPRLPRPRPRPWTRPRP	-0.00172
RRIRYRPPRLPRPRPRPRECPRP	-0.154
RRIRARPPRLPRPRPRPFGFPRP	0.261
RRIRNRPPRLPRPRPRPVWVPRP	0.0909
RRIRERPPRLPRPRPRPSWFPRP	-0.589
RRIRERPPRLPRPRPRPSVQPRP	-0.204
RRIRRRPPRLPRPRPRPTSKPRP	0.162
RRIRARPPRLPRPRPRPAAQPRP	0.916
RRIRPRPPRLPRPRPRPQRMPRP	0.209
RRIRCRPPRLPRPRPRPGLTPRP	0.108
RRIRDRPPRLPRPRPRPPMTPRP	0.425
RRIRVRPPRLPRPRPRPSHQPRP	0.0669
RRIRYRPPRLPRPRPRPVNSPRP	-0.0185
RRIRWRPPRLPRPRPRPLDMPRP	0.14
RRIRWRPPRLPRPRPRPLCSPRP	0.13
RRIRYRPPRLPRPRPRPSCMPRP	-0.947
RRIRSRPPRLPRPRPRPSAYPRP	-0.0159
RRIRPRPPRLPRPRPRPLAPPRP	0.33
RRIRCRPPRLPRPRPRPGNKPRP	-0.223
RRIRFRPPRLPRPRPRPRFEPRP	0.162
RRIRLRPPRLPRPRPRPYFNPRP	-1.13
RRIRYRPPRLPRPRPRPNDLPRP	0.018
RRIRRRPPRLPRPRPRPRMAPRP	0.294
RRIRFRPPRLPRPRPRPKYWPRP	-0.176
RRIRNRPPRLPRPRPRPHITPRP	-0.399

Sequence	shrunken log2 fold change
RRIRDRPPRLPRPRPRPEPIPRP	-0.0153
RRIRNRPPRLPRPRPRPFMMPRP	-0.181
RRIRVRPPRLPRPRPRPQYAPRP	-0.193
RRIRFRPPRLPRPRPRPWFGPRP	-0.191
RRIRFRPPRLPRPRPRPERWPRP	0.462
RRIRLRPPRLPRPRPRPLMNPRP	-0.253
RRIRKRPPRLPRPRPRPGYVPRP	-0.0738
RRIRRRPPRLPRPRPRPQSFPRP	0.0366
RRIRNRPPRLPRPRPRPAWMPRP	0.056
RRIRYRPPRLPRPRPRPLMLPRP	-1.32
RRIRPRPPRLPRPRPRPQPTPRP	-0.0242
RRIRPRPPRLPRPRPRPIPCPRP	-0.172
RRIRPRPPRLPRPRPRPCNCPRP	-0.107
RRIRTRPPRLPRPRPRPGWTPRP	0.24
RRIRERPPRLPRPRPRPVWKPRP	0.00515
RRIRQRPPRLPRPRPRPGIKPRP	-1.89e-05
RRIRIRPPRLPRPRPRPVEVPRP	0.0961
RRIRQRPPRLPRPRPRPKLDPRP	0.168
RRIRCRPPRLPRPRPRPYKEPRP	0.0662
RRIRGRPPRLPRPRPRPPELPRP	1.18
RRIRIRPPRLPRPRPRPRLSPRP	-0.325
RRIRERPPRLPRPRPRPDQHPRP	-0.165
RRIRRRPPRLPRPRPRPKLKPRP	0.211
RRIRERPPRLPRPRPRPTYDPRP	-0.528
RRIRQRPPRLPRPRPRPGVCPRP	-0.126

Sequence	shrunken log2 fold change
RRIRPRPPRLPRPRPRPFMYPRP	-0.0369
RRIRDRPPRLPRPRPRPVHNPRP	-0.585
RRIRERPPRLPRPRPRPYHKPRP	-0.804
RRIRNRPPRLPRPRPRPYTYPRP	-0.68
RRIRHRPPRLPRPRPRPEIKPRP	-0.264
RRIRFRPPRLPRPRPRPKFPPRP	-0.0265
RRIRQRPPRLPRPRPRPHTSPRP	0.0894
RRIRIRPPRLPRPRPRPLHAPRP	0.00821
RRIRKRPPRLPRPRPRPPDSPRP	0.189
RRIRKRPPRLPRPRPRPVLCPRP	0.241
RRIRMRPPRLPRPRPRPESAPRP	2.73
RRIRYRPPRLPRPRPRPKTNPRP	-0.516
RRIRSRPPRLPRPRPRPCEHPRP	0.135
RRIRTRPPRLPRPRPRPDPEPRP	0.155
RRIRARPPRLPRPRPRPCCCPRP	0.689
RRIRARPPRLPRPRPRPNSLPRP	-0.207
RRIRARPPRLPRPRPRPCTIPRP	-0.000283
RRIRHRPPRLPRPRPRPVNPPRP	-0.307
RRIRGRPPRLPRPRPRPCQRPRP	0.014
RRIRLRPPRLPRPRPRPTSSPRP	-0.178
RRIRKRPPRLPRPRPRPIGSPRP	-0.0113
RRIRRRPPRLPRPRPRPNQHPRP	0.00413
RRIRGRPPRLPRPRPRPVRWPRP	0.965
RRIRSRPPRLPRPRPRPCMEPRP	-0.292
RRIRYRPPRLPRPRPRPYNEPRP	-1.3

Sequence	shrunken log2 fold change
RRIRNRPPRLPRPRPRPFCWPRP	0.0104
RRIRQRPPRLPRPRPRPGQIPRP	-0.226
RRIRCRPPRLPRPRPRPALNPRP	0.179
RRIRYRPPRLPRPRPRPKLKPRP	-0.0928
RRIRCRPPRLPRPRPRPMEPPRP	0.0774
RRIRMRPPRLPRPRPRPKNYPRP	0.0737
RRIRCRPPRLPRPRPRPFNLPRP	-0.335
RRIRIRPPRLPRPRPRPSFFPRP	-0.654
RRIRERPPRLPRPRPRPLHRPRP	-0.0862
RRIRNRPPRLPRPRPRPYRPPRP	-0.379
RRIRDRPPRLPRPRPRPSKHPRP	-0.263
RRIRPRPPRLPRPRPRPSPGPRP	0.0372
RRIRERPPRLPRPRPRPYQRPRP	-0.876
RRIRPRPPRLPRPRPRPGPTPRP	0.0907
RRIRPRPPRLPRPRPRPKHDPRP	-0.0113
RRIRVRPPRLPRPRPRPPRVPRP	0.305
RRIRRRPPRLPRPRPRPRQVPRP	0.466
RRIRSRPPRLPRPRPRPFAYPRP	-0.348
RRIRYRPPRLPRPRPRPMWHPRP	-0.156
RRIRPRPPRLPRPRPRPEWVPRP	0.332
RRIRDRPPRLPRPRPRPPKQPRP	-0.0537
RRIRVRPPRLPRPRPRPVWPPRP	0.257
RRIRHRPPRLPRPRPRPFRYPRP	-0.737
RRIRKRPPRLPRPRPRPTYGPRP	0.043
RRIRARPPRLPRPRPRPYRWPRP	0.0451

Sequence	shrunken log2 fold change
RRIRHRPPRLPRPRPRPGPLPRP	0.0825
RRIRCRPPRLPRPRPRPFWNPRP	-0.278
RRIRFRPPRLPRPRPRPAMEPRP	0.0126
RRIRIRPPRLPRPRPRPQDNPRP	-0.954
RRIRRRPPRLPRPRPRPRPSPRP	0.781
RRIRARPPRLPRPRPRPEWKPRP	0.0235
RRIRRRPPRLPRPRPRPFWKPRP	0.111
RRIRGRPPRLPRPRPRPFYHPRP	-0.102
RRIRKRPPRLPRPRPRPKYYPRP	-0.0776
RRIRVRPPRLPRPRPRPKHDPRP	-0.31
RRIRQRPPRLPRPRPRPDGWPRP	0.228
RRIRPRPPRLPRPRPRPDLRPRP	-0.124
RRIRTRPPRLPRPRPRPPVKPRP	0.385
RRIRHRPPRLPRPRPRPPPNPRP	0.814
RRIRWRPPRLPRPRPRPFQWPRP	0.236
RRIRKRPPRLPRPRPRPHHAPRP	-0.066
RRIRFRPPRLPRPRPRPSDKPRP	-0.355
RRIRDRPPRLPRPRPRPFMAPRP	0.035
RRIRKRPPRLPRPRPRPDVVPRP	-0.0061
RRIRGRPPRLPRPRPRPSQSPRP	0.0755
RRIRARPPRLPRPRPRPHKYPRP	-0.243
RRIRTRPPRLPRPRPRPAFCPRP	0.113
RRIRKRPPRLPRPRPRPVTMPRP	-0.0185
RRIRIRPPRLPRPRPRPTQGPRP	-0.104
RRIRQRPPRLPRPRPRPDFGPRP	0.0964

Sequence	shrunken log2 fold change
RRIRKRPPRLPRPRPRPGNYPRP	-0.113
RRIRWRPPRLPRPRPRPGPLPRP	0.0252
RRIRIRPPRLPRPRPRPQRHPRP	-0.401
RRIRFRPPRLPRPRPRPAAFPRP	-0.0126
RRIRYRPPRLPRPRPRPVCGPRP	-0.463
RRIRRRPPRLPRPRPRPSRSPRP	0.139
RRIRRRPPRLPRPRPRPIPRPRP	0.625
RRIRFRPPRLPRPRPRPFCDPRP	-0.352
RRIRFRPPRLPRPRPRPQQGPRP	-0.0566
RRIRVRPPRLPRPRPRPGDEPRP	0.122
RRIRDRPPRLPRPRPRPMRPPRP	0.804
RRIRTRPPRLPRPRPRPMQQPRP	0.065
RRIRMRPPRLPRPRPRPGPWPRP	0.89
RRIRQRPPRLPRPRPRPYSDPRP	-0.028
RRIRVRPPRLPRPRPRPDKQPRP	-0.284
RRIRMRPPRLPRPRPRPHMTPRP	0.342
RRIRQRPPRLPRPRPRPHQGPRP	0.0866
RRIRYRPPRLPRPRPRPSRVPRP	-0.115
RRIRSRPPRLPRPRPRPDYWPRP	0.0977
RRIRHRPPRLPRPRPRPWNEPRP	-0.171
RRIRCRPPRLPRPRPRPIMTPRP	-0.00708
RRIRRRPPRLPRPRPRPIMAPRP	0.107
RRIRHRPPRLPRPRPRPKPIPRP	-0.0951
RRIRYRPPRLPRPRPRPNFRPRP	-0.425
RRIRNRPPRLPRPRPRPLNGPRP	-0.0206
